{
  "source": "the nanobody polyreactivity screen of Harvey et al. (2022)",
  "data": [
    {"test": "yeast display, Sf9 membrane polyspecificity reagent, FACS + sequencing; frameworks hold sequencing errors", "how_it_was_run": "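Using colony PCR, genes from sorted yeast display clones were amplified, then sequenced on MiSeq at 2 × 250 and filtered by CDR length. The clones had been stained with 10% biotinylated, detergent-solubilized Sf9 membrane reagent for 1 hour at 4 °C and sorted by FACS into low and high (top ~1%) gates on anti-HA and streptavidin fluorescence. Polyreactivity labels come from the gate of origin.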", "values": [
      {"sequence": "QVQLVESGGGLVQAGGSLRLSCAASGSIFLIYAMGWYRQAPGKERELVATINRGDNTYYADSVKGRFTISRDNAKNTVYLQMNSLKPEDTAVYYCAADVPWGWWDSDFSDNYYWGQGTQVTVSS", "polyreactivity (PSR sort gate)": "low polyreactivity"},
      {"sequence": "QVQLVESGGGLVQAGGSLRLSCAASGSIFLKYAMGWYRQAPGKERELVATISRGGSTNYADSVKGRFTISRDNAKNTVYLLMNSLKPEYTAVYYCAAKYGRPYGTYGYWGQGTQVTVSS", "polyreactivity (PSR sort gate)": "high polyreactivity"},
      {"sequence": "QVQLVESGGGLVQAGGSLRLSCAASGSIFLNNAMGWYRQAPGKERELVAAITRNVGSTYYADSVKGRFTISRDNAKNTVYLQMNSLKPEDSAVYYCAADRRRRYDYWGQGTQVTVSS", "polyreactivity (PSR sort gate)": "low polyreactivity"},
      {"sequence": "QVQLVESGGGLVQAGGSLRLSCAASGSIFLNYAMGWYRQAPGKERELVAGISNGGSTNYADSVKGRFTISRDNAKYTVYLQMNSLKPEDTAVFYCARPGYKSRGKRFDYWGQGTQVTVSS", "polyreactivity (PSR sort gate)": "low polyreactivity"},
      {"sequence": "QVQLVESGGGLVQAGGSLRLSCAASGSIFLPYAMGWYRQAPGKERELVAAITRRGTSTYYADSVKGRFTISRDNAKNTVYLQMNSLKPEDTAVYYCAAEIKYWYSAYAYGYWGQGTQVTVSS", "polyreactivity (PSR sort gate)": "high polyreactivity"},
      {"sequence": "QVQLVESGGGLVQAGGSLRLSCAASGSIFLPYAMVWSRQAPGTERELVAAITWGGDSTYADSVKGRFTISRDNAKNTVYLQMNSLKPEDTAVYYCAAGAGFESDYWGQGTQVTVSS", "polyreactivity (PSR sort gate)": "low polyreactivity"},
      {"sequence": "QVQLVESGGGLVQAGGSLRLSCAASGSIFLRNAMGWYRQAPGKERELVAAITKRGGSTYYADSVKGRFTISRDNAKNTVYLQMNSLKPEDTAVYYCNVDTYANTAFVRKPMYYWGQGTQVTVSS", "polyreactivity (PSR sort gate)": "low polyreactivity"},
      {"sequence": "QVQLVESGGGLVQAGGSLRLSCAASGSIFLSNAMGCYRQAPGKEREIVADIDWTGGDTYYADSVKGRFTISRDNAKNTVYLQMNSLKPEDTAVYYCAADYGYRNLLTEYSYWGQGTQVTVSS", "polyreactivity (PSR sort gate)": "low polyreactivity"},
      {"sequence": "QVQLVESGGGLVQAGGSLRLSCAASGSIFLSNMGWYREAPGKQRELVAAITIGGSTDYADSVKGRFTISRDNAKNTVFLQMNSLKPEDTAVYYCNADNPYSDGADSLGNYWGHGTQVTVSS", "polyreactivity (PSR sort gate)": "low polyreactivity"},
      {"sequence": "QVQLVESGGGLVQAGGSLRLSCAASGSIFLSYAMGWDRPAPGKVRELVADISRSGGSTYYADSVKGRFTISRDNAKNTVYLQMNSLKPEDTAVYYCAVYIAVYEGDYWGQGTQVTVSS", "polyreactivity (PSR sort gate)": "low polyreactivity"},
      {"sequence": "QVQLVESGGGLVQAGGSLRLSCAASGSIFLSYDMGWYRQAPGKERELVAAITQSGGSTYYADSVKGRFTISRDNAKNTVYLQMNSLKPEDTAVYYCAKEGDSGYWFDYWGQGTQVTVSS", "polyreactivity (PSR sort gate)": "low polyreactivity"},
      {"sequence": "QVQLVESGGGLVQAGGSLRLSCAASGSIFLTNAMGWYRQAPGKEREFVAAIDWGGTITYYADSVKGRFTISRDNAKNTVYLQMNSLKPEDTAVYYCAADPTYPYGYWGQGTQVTVSS", "polyreactivity (PSR sort gate)": "low polyreactivity"},
      {"sequence": "QVQLVESGGGLVQAGGSLRLSCAASGSIFLVNAMGWYRQAPGKERELVAAITWIGGSTYYADSVKGRFTISRDNAKNTVYLQMNSLKPEDTAVYYCAAYGKRLGGGGYYWGQGTQVTVSS", "polyreactivity (PSR sort gate)": "high polyreactivity"},
      {"sequence": "QVQLVESGGGLVQAGGSLRLSCAASGSIFLVNDKGWYRPAPGKERELVAAISSRGGSTYYADSVKGRFTISRDNAKNTVYLQMNSLKPEDTAVYYCAALQRPLEGLLYYYWGQGTPVTVSS", "polyreactivity (PSR sort gate)": "low polyreactivity"},
      {"sequence": "QVQLVESGGGLVQAGGSLRLSCAASGSIFLVYAMGWYRQAPGKERELVAAIDWSDTDTYYADSVKGRFTISRDNAKNTFYLQMNSLKPEDTAVYYCAADHVGVDFEYWGQGTQVTVSS", "polyreactivity (PSR sort gate)": "low polyreactivity"},
      {"sequence": "QVQLVESGGGLVQAGGSLRLSCAASGSIFLVYAMGWYRQAPGKERELVAAISRSGRTYADSVKGRFTISRDNAKNTVYLQMNSLKPEDTAVYYCNKLAVRPGYGSTYDYWGQGTQVTVSS", "polyreactivity (PSR sort gate)": "high polyreactivity"},
      {"sequence": "QVQLVESGGGLVQAGGSLRLSCAASGSIFLVYAMGWYRQAPGKERELVAVIRWRDGSTYYADSVKGRFTISRDNAMNTVYLQMNSLKPEDTAVYYCAADGVIFEYDYWGQGTQVTVSS", "polyreactivity (PSR sort gate)": "low polyreactivity"}
    ]}
  ]
}
